Data published in PMC2756588.

T1: Bzz1-1, P38822
T1 sequence (P38822 478-572, looked up): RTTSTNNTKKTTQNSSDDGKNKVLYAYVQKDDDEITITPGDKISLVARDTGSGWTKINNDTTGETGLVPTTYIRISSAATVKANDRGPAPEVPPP

T2: Lsb4, P32793
T2 sequence (P32793 402-468, looked up): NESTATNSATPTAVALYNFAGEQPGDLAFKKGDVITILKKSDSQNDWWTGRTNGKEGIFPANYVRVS

T3: Lsb3, P43603
T3 sequence (P43603 385-451, looked up): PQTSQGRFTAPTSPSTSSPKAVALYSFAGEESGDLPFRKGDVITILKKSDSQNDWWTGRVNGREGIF

T4: Nbp2, Q12163
T4 sequence (Q12163 103-180, looked up): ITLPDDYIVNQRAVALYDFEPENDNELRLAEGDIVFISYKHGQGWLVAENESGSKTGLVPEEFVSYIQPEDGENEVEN

T5: Cdc25, P04821
T5 sequence (P04821 50-136, looked up): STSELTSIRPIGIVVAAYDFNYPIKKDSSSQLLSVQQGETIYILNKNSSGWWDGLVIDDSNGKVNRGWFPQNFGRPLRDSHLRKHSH

T6: Boi1, P38041
T6 sequence (P38041 1-86, looked up): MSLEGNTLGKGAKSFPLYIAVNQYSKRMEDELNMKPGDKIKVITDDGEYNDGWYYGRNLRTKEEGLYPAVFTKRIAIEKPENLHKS

T7: Abp1, P15891
T7 sequence (P15891 535-592, looked up): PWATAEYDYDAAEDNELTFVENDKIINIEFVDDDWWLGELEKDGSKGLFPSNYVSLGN

T8: Hse1, P38753
T8 sequence (P38753 208-285, looked up): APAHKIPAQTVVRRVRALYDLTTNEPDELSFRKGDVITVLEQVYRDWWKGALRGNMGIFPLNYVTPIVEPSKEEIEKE

T9: Sla1-2, P32790
T9 sequence (P32790 60-140, looked up): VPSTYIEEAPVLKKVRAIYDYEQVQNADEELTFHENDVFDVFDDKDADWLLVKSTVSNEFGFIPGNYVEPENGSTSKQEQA

T10: Hof1, Q05080
T10 sequence (Q05080 590-669, looked up): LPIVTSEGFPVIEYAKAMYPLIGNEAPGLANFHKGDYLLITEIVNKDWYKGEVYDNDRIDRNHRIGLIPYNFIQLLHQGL

T11: Bud14, P27637
T11 sequence (P27637 247-328, looked up): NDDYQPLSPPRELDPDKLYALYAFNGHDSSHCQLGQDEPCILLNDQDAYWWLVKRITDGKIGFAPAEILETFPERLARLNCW

T12: Boi2, P39969
T12 sequence (P39969 32-116, looked up): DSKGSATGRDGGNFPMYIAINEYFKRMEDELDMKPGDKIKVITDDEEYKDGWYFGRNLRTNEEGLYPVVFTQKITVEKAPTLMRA

T13: Cyk3, Q07533
T13 sequence (Q07533 1-83, looked up): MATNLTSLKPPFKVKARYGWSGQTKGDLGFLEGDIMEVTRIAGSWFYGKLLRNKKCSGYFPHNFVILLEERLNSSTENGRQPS

T14: Pex13, P80667
T14 sequence (P80667 295-386, looked up): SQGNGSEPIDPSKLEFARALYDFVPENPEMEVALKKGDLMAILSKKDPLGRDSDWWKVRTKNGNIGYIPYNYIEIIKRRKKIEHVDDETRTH

T15: Bzz1-2, P38822
T15 sequence (P38822 568-633, looked up): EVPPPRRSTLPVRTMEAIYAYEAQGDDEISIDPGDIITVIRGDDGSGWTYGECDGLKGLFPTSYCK

T16: Bbc1, P47068
T16 sequence (P47068 1-78, looked up): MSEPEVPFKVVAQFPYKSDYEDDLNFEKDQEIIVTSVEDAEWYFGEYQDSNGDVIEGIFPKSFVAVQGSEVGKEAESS

T17: Sla1-3, P32790
T17 sequence (P32790 344-424, looked up): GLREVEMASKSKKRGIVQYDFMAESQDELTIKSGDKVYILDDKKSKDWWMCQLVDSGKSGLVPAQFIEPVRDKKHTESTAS

T18: Fus1, P11710
T18 sequence (P11710 432-512, looked up): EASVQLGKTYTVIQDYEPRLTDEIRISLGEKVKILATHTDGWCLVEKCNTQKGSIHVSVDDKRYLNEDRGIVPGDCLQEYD

T19: Pin3, Q06449
T19 sequence (Q06449 53-122, looked up): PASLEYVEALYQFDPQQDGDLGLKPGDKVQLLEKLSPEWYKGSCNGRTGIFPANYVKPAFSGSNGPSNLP

T20: Myo5, Q04439
T20 sequence (Q04439 1072-1160, looked up): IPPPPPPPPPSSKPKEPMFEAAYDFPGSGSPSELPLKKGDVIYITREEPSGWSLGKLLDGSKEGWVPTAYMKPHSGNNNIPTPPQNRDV

T21: Lsb1, P53281
T21 sequence (P53281 45-122, looked up): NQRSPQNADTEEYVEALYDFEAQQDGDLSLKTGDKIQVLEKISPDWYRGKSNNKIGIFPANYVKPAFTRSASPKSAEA


Target: T1, Bzz1-1, P38822
Experiment: SPOT array
Conditions: median of control spots 4446

Going from VPVAPPPPPASLGQS to FSRRQSMDIPSKNRN, the SPOT intensity falls from 8 to 1.

In the case of NIKVLLNPKLGKPVK, the SPOT intensity is reported as 2.

Target: T2, Lsb4, P32793
Experiment: SPOT array
Conditions: median of control spots 397

Going from VPVAPPPPPASLGQS to FSRRQSMDIPSKNRN, the SPOT intensity rises from 0 to 84.

For NIKVLLNPKLGKPVK, the SPOT intensity was 1.

Target: T3, Lsb3, P43603
Experiment: SPOT array
Conditions: median of control spots 406

Going from VPVAPPPPPASLGQS to FSRRQSMDIPSKNRN, the SPOT intensity rises from 0 to 22.

NIKVLLNPKLGKPVK was tested, and the SPOT intensity was 0.

Target: T4, Nbp2, Q12163
Experiment: SPOT array
Conditions: median of control spots 357

Compared with VPVAPPPPPASLGQS, FSRRQSMDIPSKNRN is higher in SPOT intensity: 0 for the first, 2 for the second.

Binder NIKVLLNPKLGKPVK has an SPOT intensity of 2.

Target: Rvs167, P39743
Sequence (P39743 419-482): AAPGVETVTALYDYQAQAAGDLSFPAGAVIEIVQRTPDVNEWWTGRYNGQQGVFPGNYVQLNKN
Experiment: SPOT array
Conditions: median of control spots 2707

VPVAPPPPPASLGQS and FSRRQSMDIPSKNRN are the same in SPOT intensity: 0 for the first, 0 for the second.

NIKVLLNPKLGKPVK gave an SPOT intensity of 0.

Target: T5, Cdc25, P04821
Experiment: SPOT array
Conditions: median of control spots 969

Going from VPVAPPPPPASLGQS to FSRRQSMDIPSKNRN, the SPOT intensity rises from 0 to 16.

With NIKVLLNPKLGKPVK the SPOT intensity was 96.

Target: T6, Boi1, P38041
Experiment: SPOT array
Conditions: median of control spots 1162

VPVAPPPPPASLGQS and FSRRQSMDIPSKNRN are the same in SPOT intensity: 0 for the first, 0 for the second.

Binder NIKVLLNPKLGKPVK has an SPOT intensity of 5.

Target: T7, Abp1, P15891
Experiment: SPOT array
Conditions: median of control spots 935

First: VPVAPPPPPASLGQS
Second: FSRRQSMDIPSKNRN
The SPOT intensity of the first is lower: 0 for the first, 127 for the second.

In the case of NIKVLLNPKLGKPVK, the SPOT intensity is reported as 93.

Target: T8, Hse1, P38753
Experiment: SPOT array
Conditions: median of control spots 1727

Compared with VPVAPPPPPASLGQS, FSRRQSMDIPSKNRN is higher in SPOT intensity: 0 for the first, 8 for the second.

NIKVLLNPKLGKPVK gave an SPOT intensity of 20.

Target: T9, Sla1-2, P32790
Experiment: SPOT array
Conditions: median of control spots 712

First: VPVAPPPPPASLGQS
Second: FSRRQSMDIPSKNRN
The SPOT intensity of the first is lower: 0 for the first, 27 for the second.

For NIKVLLNPKLGKPVK, the SPOT intensity was 0.

Target: T10, Hof1, Q05080
Experiment: SPOT array
Conditions: median of control spots 4086

VPVAPPPPPASLGQS and FSRRQSMDIPSKNRN are the same in SPOT intensity: 0 for the first, 0 for the second.

NIKVLLNPKLGKPVK gave an SPOT intensity of 13.

Target: T11, Bud14, P27637
Experiment: SPOT array
Conditions: median of control spots 956

Compared with VPVAPPPPPASLGQS, FSRRQSMDIPSKNRN is higher in SPOT intensity: 0 for the first, 6 for the second.

With NIKVLLNPKLGKPVK the SPOT intensity was 27.

Target: T12, Boi2, P39969
Experiment: SPOT array
Conditions: median of control spots 1161

First: VPVAPPPPPASLGQS
Second: FSRRQSMDIPSKNRN
The SPOT intensity of the first is lower: 0 for the first, 1 for the second.

With NIKVLLNPKLGKPVK the SPOT intensity was 0.

Target: T13, Cyk3, Q07533
Experiment: SPOT array
Conditions: median of control spots 1451

VPVAPPPPPASLGQS and FSRRQSMDIPSKNRN are the same in SPOT intensity: 0 for the first, 0 for the second.

NIKVLLNPKLGKPVK was tested, and the SPOT intensity was 5.

Target: Bem1-1, P29366
Sequence (P29366 55-141): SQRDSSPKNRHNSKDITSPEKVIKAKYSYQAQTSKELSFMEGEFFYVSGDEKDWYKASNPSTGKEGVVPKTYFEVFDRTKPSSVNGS
Experiment: SPOT array
Conditions: median of control spots 4282

Going from VPVAPPPPPASLGQS to FSRRQSMDIPSKNRN, the SPOT intensity rises from 4 to 7.

In the case of NIKVLLNPKLGKPVK, the SPOT intensity is reported as 2.

Target: GST
Experiment: SPOT array
Conditions: median of control spots 978

Compared with VPVAPPPPPASLGQS, FSRRQSMDIPSKNRN is higher in SPOT intensity: 0 for the first, 1 for the second.

For NIKVLLNPKLGKPVK, the SPOT intensity was 0.

Target: Sho1, P40073
Sequence (P40073 287-367): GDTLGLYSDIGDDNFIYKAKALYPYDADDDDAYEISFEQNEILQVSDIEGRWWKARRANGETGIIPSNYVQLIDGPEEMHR
Experiment: SPOT array
Conditions: median of control spots 1148

Compared with VPVAPPPPPASLGQS, FSRRQSMDIPSKNRN is higher in SPOT intensity: 0 for the first, 60 for the second.

With NIKVLLNPKLGKPVK the SPOT intensity was 63.

Target: T14, Pex13, P80667
Experiment: SPOT array
Conditions: median of control spots 1341

Compared with VPVAPPPPPASLGQS, FSRRQSMDIPSKNRN is higher in SPOT intensity: 0 for the first, 61 for the second.

NIKVLLNPKLGKPVK showed an SPOT intensity of 6.

Target: T15, Bzz1-2, P38822
Experiment: SPOT array
Conditions: median of control spots 4538

Going from VPVAPPPPPASLGQS to FSRRQSMDIPSKNRN, the SPOT intensity rises from 0 to 26.

Work on NIKVLLNPKLGKPVK yielded an SPOT intensity of 6.

Target: T16, Bbc1, P47068
Experiment: SPOT array
Conditions: median of control spots 796

First: VPVAPPPPPASLGQS
Second: FSRRQSMDIPSKNRN
The SPOT intensity of the first is lower: 0 for the first, 7 for the second.

NIKVLLNPKLGKPVK was tested, and the SPOT intensity was 111.

Target: T17, Sla1-3, P32790
Experiment: SPOT array
Conditions: median of control spots 5475

Compared with VPVAPPPPPASLGQS, FSRRQSMDIPSKNRN is higher in SPOT intensity: 0 for the first, 1 for the second.

In the case of NIKVLLNPKLGKPVK, the SPOT intensity is reported as 8.

Target: T18, Fus1, P11710
Experiment: SPOT array
Conditions: median of control spots 1200

VPVAPPPPPASLGQS and FSRRQSMDIPSKNRN are the same in SPOT intensity: 0 for the first, 0 for the second.

With NIKVLLNPKLGKPVK the SPOT intensity was 2.

Target: Myo3, P36006
Experiment: SPOT array
Conditions: median of control spots 468

Compared with VPVAPPPPPASLGQS, FSRRQSMDIPSKNRN is higher in SPOT intensity: 0 for the first, 44 for the second.

For NIKVLLNPKLGKPVK, the SPOT intensity was 6.

Target: T19, Pin3, Q06449
Experiment: SPOT array
Conditions: median of control spots 2171

First: VPVAPPPPPASLGQS
Second: FSRRQSMDIPSKNRN
The SPOT intensity of the first is lower: 0 for the first, 195 for the second.

For NIKVLLNPKLGKPVK, the SPOT intensity was 2.

Target: T20, Myo5, Q04439
Experiment: SPOT array
Conditions: median of control spots 471

Compared with VPVAPPPPPASLGQS, FSRRQSMDIPSKNRN is higher in SPOT intensity: 1 for the first, 83 for the second.

Work on NIKVLLNPKLGKPVK yielded an SPOT intensity of 0.

Target: T21, Lsb1, P53281
Experiment: SPOT array
Conditions: median of control spots 388

Going from VPVAPPPPPASLGQS to FSRRQSMDIPSKNRN, the SPOT intensity rises from 0 to 200.

With NIKVLLNPKLGKPVK the SPOT intensity was 1.

Target: Bem1-2, P29366
Sequence (P29366 139-227): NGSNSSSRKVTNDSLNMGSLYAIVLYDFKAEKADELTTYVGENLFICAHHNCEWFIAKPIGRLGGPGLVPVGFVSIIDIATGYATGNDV
Experiment: SPOT array
Conditions: median of control spots 4347

Compared with VPVAPPPPPASLGQS, FSRRQSMDIPSKNRN is lower in SPOT intensity: 1 for the first, 0 for the second.

NIKVLLNPKLGKPVK gave an SPOT intensity of 3.
